IntAct's records for PubMed 15252009

B1: Formin-binding protein 1 (Homo sapiens), Q96RU3 (parent)
chain: MSWGTELWDQFDNLEKHTQWGIDILEKYIKFVKERTEIELSYAKQLRNLSKKYQPKKNSKEEEEYKYTSCKAFISNLNEMNDYAGQHEVISENMASQIIVDLARYVQELKQERKSNFHDGRKAQQHIETCWKQLESSKRRFERDCKEADRAQQYFEKMDADINVTKADVEKARQQAQIRHQMAEDSKADYSSILQKFNHEQHEYYHTHIPNIFQKIQEMEERRIVRMGESMKTYAEVDRQVIPIIGKCLDGIVKAAESIDQKNDSQLVIEAYKSGFEPPGDIEFEDYTQPMKRTVSDNSLSNSRGEGKPDLKFGGKSKGKLWPFIKKNKLMSLLTSPHQPPPPPPASASPSAVPNGPQSPKQQKEPLSHRFNEFMTSKPKIHCFRSLKRGLSLKLGATPEDFSNLPPEQRRKKLQQKVDELNKEIQKEMDQRDAITKMKDVYLKNPQMGDPASLDHKLAEVSQNIEKLRVETQKFEAWLAEVEGRLPARSEQARRQSGLYDSQNPPTVNNCAQDRESPDGSYTEEQSQESEMKVLATDFDDEFDDEEPLPAIGTCKALYTFEGQNEGTISVVEGETLYVIEEDKGDGWTRIRRNEDEEGYVPTSYVEVCLDKNAKDS
partner: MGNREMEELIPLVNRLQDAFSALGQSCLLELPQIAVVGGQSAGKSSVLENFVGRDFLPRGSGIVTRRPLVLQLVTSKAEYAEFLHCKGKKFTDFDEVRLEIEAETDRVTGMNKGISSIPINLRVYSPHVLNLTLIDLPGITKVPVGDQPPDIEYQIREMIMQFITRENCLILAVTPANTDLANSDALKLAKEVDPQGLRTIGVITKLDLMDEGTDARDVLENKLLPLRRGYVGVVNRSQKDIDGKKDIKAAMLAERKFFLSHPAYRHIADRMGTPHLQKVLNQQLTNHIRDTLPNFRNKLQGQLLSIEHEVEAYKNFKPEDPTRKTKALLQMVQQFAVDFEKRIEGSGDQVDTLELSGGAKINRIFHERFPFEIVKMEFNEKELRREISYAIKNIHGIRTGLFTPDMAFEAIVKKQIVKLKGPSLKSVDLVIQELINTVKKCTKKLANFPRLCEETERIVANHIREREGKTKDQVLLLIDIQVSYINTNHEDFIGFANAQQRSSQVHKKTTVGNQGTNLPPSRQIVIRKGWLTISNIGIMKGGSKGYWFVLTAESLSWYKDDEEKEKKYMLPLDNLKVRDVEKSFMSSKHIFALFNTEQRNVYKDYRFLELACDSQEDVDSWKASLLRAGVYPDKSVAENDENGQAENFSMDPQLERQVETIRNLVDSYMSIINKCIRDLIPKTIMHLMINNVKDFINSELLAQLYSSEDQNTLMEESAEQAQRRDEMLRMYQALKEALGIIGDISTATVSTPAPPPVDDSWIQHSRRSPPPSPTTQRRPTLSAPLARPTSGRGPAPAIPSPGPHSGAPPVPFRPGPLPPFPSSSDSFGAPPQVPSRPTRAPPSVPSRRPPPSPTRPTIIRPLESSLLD
B2: Formin-binding protein 1 (Homo sapiens), Q96RU3 (parent)
chain: B1 chain
partner: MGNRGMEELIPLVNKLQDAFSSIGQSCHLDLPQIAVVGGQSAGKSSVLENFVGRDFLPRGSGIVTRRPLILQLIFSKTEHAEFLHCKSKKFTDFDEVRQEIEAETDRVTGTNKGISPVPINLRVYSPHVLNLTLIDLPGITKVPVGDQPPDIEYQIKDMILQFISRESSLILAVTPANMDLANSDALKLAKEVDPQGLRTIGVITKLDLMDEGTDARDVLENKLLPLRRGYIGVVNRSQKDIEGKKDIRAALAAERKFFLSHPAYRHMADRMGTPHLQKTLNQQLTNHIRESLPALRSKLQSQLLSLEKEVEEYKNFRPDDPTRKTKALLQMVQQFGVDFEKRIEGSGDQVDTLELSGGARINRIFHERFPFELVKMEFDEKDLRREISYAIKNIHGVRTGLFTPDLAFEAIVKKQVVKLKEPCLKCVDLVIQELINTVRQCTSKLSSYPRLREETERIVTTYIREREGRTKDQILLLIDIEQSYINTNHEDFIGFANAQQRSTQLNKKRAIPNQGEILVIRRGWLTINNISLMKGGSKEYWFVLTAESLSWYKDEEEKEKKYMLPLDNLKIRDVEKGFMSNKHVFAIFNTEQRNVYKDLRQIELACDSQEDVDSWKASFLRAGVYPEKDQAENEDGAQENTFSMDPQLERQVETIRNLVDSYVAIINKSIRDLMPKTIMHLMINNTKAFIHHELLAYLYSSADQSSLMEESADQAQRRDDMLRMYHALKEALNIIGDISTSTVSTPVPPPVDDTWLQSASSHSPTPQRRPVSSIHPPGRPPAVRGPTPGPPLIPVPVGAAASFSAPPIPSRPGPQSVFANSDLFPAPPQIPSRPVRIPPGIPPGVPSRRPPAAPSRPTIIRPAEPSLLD
B3: Formin-binding protein 1 (Homo sapiens), Q96RU3 (parent)
chain: B1 chain
partner: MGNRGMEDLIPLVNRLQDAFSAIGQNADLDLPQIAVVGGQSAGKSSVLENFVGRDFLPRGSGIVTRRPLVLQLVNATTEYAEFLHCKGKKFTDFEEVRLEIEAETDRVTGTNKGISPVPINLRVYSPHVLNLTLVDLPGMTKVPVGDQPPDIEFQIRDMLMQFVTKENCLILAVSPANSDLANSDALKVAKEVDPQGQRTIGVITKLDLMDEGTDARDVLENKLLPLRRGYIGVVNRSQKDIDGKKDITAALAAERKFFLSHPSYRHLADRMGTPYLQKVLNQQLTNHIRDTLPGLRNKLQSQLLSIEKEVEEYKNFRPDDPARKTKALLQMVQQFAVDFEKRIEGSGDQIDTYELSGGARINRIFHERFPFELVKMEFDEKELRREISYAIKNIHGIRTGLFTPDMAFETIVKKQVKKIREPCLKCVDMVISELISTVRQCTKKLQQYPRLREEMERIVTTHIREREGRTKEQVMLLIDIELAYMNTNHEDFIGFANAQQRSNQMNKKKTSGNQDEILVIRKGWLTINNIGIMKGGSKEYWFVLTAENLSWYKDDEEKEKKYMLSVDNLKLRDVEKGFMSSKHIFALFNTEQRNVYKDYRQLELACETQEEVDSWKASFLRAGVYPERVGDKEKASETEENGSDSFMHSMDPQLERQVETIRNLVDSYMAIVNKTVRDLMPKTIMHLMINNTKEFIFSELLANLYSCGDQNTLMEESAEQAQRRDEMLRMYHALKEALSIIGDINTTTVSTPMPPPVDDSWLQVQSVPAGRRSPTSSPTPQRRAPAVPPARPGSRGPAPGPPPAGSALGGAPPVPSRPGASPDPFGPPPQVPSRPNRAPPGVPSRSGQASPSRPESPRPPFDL

Variants of: B1
Conditions: with dyn3_human DNM3, Q9UQ16
P602L was tested, and the “effect of a mutation on the interaction” value was “decreasing interaction”.

Variants of: B2
Conditions: with dyn2_human DNM2, P50570
In the case of P602L, the “effect of a mutation on the interaction” value is reported as “decreasing interaction”.

Variants of: B3
Conditions: with dyn1_human DNM1, Q05193
In the case of P602L, the “effect of a mutation on the interaction” value is reported as “decreasing interaction”.
